Source: the supplement of paper PMC10126150
± gives the standard deviation of the averaged measurements.

system: ATP; assay: switch fluorescence ratio, 500 uM ATP over buffer (Cy3 cluster intensity, sum of 5 cycles each) (fold (ratio)); higher = stronger signal-on switching upon ATP binding; sequences stand for … in TCGTCGGCAGCGTCAGATGTGTATAAGAGACAGTTTTTTTTTTTTTTTTTTTTTTTTT…TC; conditions: aptamer strand: ATP DNA aptamer (quencher-CACCTGGGGGAGTATTGCGGAGGAAGG + anchor), 100 nM annealed; ATP concentration: 500 uM
How it was run: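 The quencher-labelled ATP aptamer, at 100 nM, was annealed to Cy3-labelled switching-strand clusters on a modified Illumina MiSeq flow-cell. The clusters were imaged in selection buffer, then after 15 min with 500 uM ATP at 22 °C, and this buffer/ATP cycle ran five times with NaOH stripping and re-annealing between runs. Per-cluster fluorescence ratios, summed target-cycle over summed buffer-cycle Cy3 intensity, were averaged per switch-domain sequence. Clusters outside 100-1000 RFU were excluded.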
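Further: ATP exposure 15 min at 22 °C before imaging.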

Going from GATGATCACA to GGGAACGTTA, the switch fluorescence ratio rises from 0.951 ± 0.036 to 1.05 ± 0.035.

AATATTTAGA and TCGGAGAGTC are within error of each other in switch fluorescence ratio: 0.9837 ± 0.0059 for the first, 1.26 ± 0.53 for the second.

TTTCATGTCG and GCGGTGACGG are within error of each other in switch fluorescence ratio: 0.986 ± 0.1 for the first, 1 ± 0.062 for the second.

GTTGGAATTT and GCGTGACGGG are within error of each other in switch fluorescence ratio: 0.966 ± 0.023 for the first, 0.989 ± 0.037 for the second.

First: TCATGAGTTG
Second: GGGAAATAGA
The switch fluorescence ratio of the first is lower: 0.963 ± 0.018 for the first, 1.004 ± 0.0088 for the second.

CGGGGGGCGT and GGGAAATCAG are within error of each other in switch fluorescence ratio: 0.999 ± 0.021 for the first, 0.9838 ± 0.0076 for the second.

TTTCTAGGCA and CTAATTTCGT are within error of each other in switch fluorescence ratio: 1.01 ± 0.03 for the first, 0.992 ± 0.014 for the second.

TGCGGCTTCA and CGGGAAGGTT are within error of each other in switch fluorescence ratio: 1.01 ± 0.016 for the first, 1.08 ± 0.16 for the second.

AGTTCGCTGT and ATCTTTTTCT are within error of each other in switch fluorescence ratio: 0.9889 ± 0.0067 for the first, 1.03 ± 0.052 for the second.

GAATCATAGA and AGGGGGGTG are the same in switch fluorescence ratio: 1.004 ± 0.0094 for the first, 1 ± 0.039 for the second.

AGCGTGGTGG and ATCTCAGGGC are within error of each other in switch fluorescence ratio: 0.958 ± 0.033 for the first, 0.979 ± 0.014 for the second.

TCTGTTAGTG and TTTTGTACGT are within error of each other in switch fluorescence ratio: 1.03 ± 0.045 for the first, 1.02 ± 0.041 for the second.

First: GGGGAAACCT
Second: TCTCAGGTTG
The switch fluorescence ratio of the first is higher: 2.21 ± 0.77 for the first, 1.072 ± 0.0058 for the second.

TTGTGCGACT and TTTTTGATCG are within error of each other in switch fluorescence ratio: 0.98 ± 0.019 for the first, 0.997 ± 0.039 for the second.

GTTTATTCGG and CTGGGGGTCG are within error of each other in switch fluorescence ratio: 0.981 ± 0.019 for the first, 1 ± 0.025 for the second.

Going from GATTGGTACT to CGTAGTATAT, the switch fluorescence ratio rises from 1 ± 0.02 to 1.25 ± 0.043.

TTTTAGTGGG and TTTTAGATAT are within error of each other in switch fluorescence ratio: 1.01 ± 0.039 for the first, 0.98713 ± 0.00039 for the second.

ATTACCAATT and GAATTAGACG are within error of each other in switch fluorescence ratio: 2.24 ± 1.8 for the first, 0.977 ± 0.01 for the second.

Compared with TAAGTTGGTT, TTTTTGAGTG is lower in switch fluorescence ratio: 1.06 ± 0.014 for the first, 0.976 ± 0.02 for the second.

TTTTTCAAAT and ATGTGTAGTT are within error of each other in switch fluorescence ratio: 1.04 ± 0.076 for the first, 0.992 ± 0.019 for the second.

GTATCTGGGG and CGGGATATGG are within error of each other in switch fluorescence ratio: 0.998 ± 0.059 for the first, 1.03 ± 0.045 for the second.

First: TAGACGTTGG
Second: AGAGTTTGT
The switch fluorescence ratio of the first is higher: 1.02 ± 0.014 for the first, 0.987 ± 0.014 for the second.

GATGTTAGGG and TTCGAGTCCG are within error of each other in switch fluorescence ratio: 0.983 ± 0.026 for the first, 1.03 ± 0.06 for the second.

ACTAAAGAGC and GTTTGTTATG are within error of each other in switch fluorescence ratio: 1.12 ± 0.2 for the first, 0.999 ± 0.042 for the second.

First: AATTTGGCCT
Second: TCGGAGTTTG
The switch fluorescence ratio of the first is higher: 1.05 ± 0.035 for the first, 0.9963 ± 0.0024 for the second.

TTTATTTTGC and GCATTGTGTA are within error of each other in switch fluorescence ratio: 1.01 ± 0.036 for the first, 0.9995 ± 0.003 for the second.

GAGCATAGGG and TTAAAACGGA are the same in switch fluorescence ratio: 1.02 ± 0.013 for the first, 1.02 ± 0.036 for the second.

GCGTAAAGTG and AATTGCGTGG are within error of each other in switch fluorescence ratio: 0.994 ± 0.038 for the first, 0.988 ± 0.017 for the second.

TAGGGGGCGC and GACTTTGAGC are within error of each other in switch fluorescence ratio: 1.02 ± 0.039 for the first, 1.01 ± 0.016 for the second.

Going from CTCGATGCGT to AGGGGCGAGA, the switch fluorescence ratio falls from 1.04 ± 0.013 to 0.999 ± 0.013.

Going from TGATGCAAGT to TGTGGAACGT, the switch fluorescence ratio falls from 1.09 ± 0.032 to 0.9813 ± 0.0082.

GGTGCGACTC and AACGTTGTTG are within error of each other in switch fluorescence ratio: 1.04 ± 0.05 for the first, 0.976 ± 0.044 for the second.

GCTTTAGTAT and GTACTTGGGA are within error of each other in switch fluorescence ratio: 0.9963 ± 0.0058 for the first, 1.04 ± 0.074 for the second.

Compared with CGCGGGGTAA, TGGTTTAGGC is lower in switch fluorescence ratio: 1.04 ± 0.011 for the first, 0.997 ± 0.011 for the second.

Compared with TCCAGCTGA, TAAAAGTTAA is lower in switch fluorescence ratio: 2.688 ± 0.015 for the first, 0.981 ± 0.018 for the second.

Compared with CGTGTCGACA, ACTAATGTAT is higher in switch fluorescence ratio: 0.9631 ± 0.0068 for the first, 1 ± 0.014 for the second.

GAACATTGAG and AGTCATCACC are the same in switch fluorescence ratio: 1.019 ± 0.0034 for the first, 1.02 ± 0.023 for the second.

GGATTGGATT and CGGGATTCTG are the same in switch fluorescence ratio: 1 ± 0.022 for the first, 1 ± 0.031 for the second.

Going from AACAGCAGGC to TAGTTGGCCC, the switch fluorescence ratio falls from 1.16 ± 0.013 to 1.006 ± 0.0034.

Compared with TTTTACAGCG, TTCCGGGTG is higher in switch fluorescence ratio: 1 ± 0.036 for the first, 3.14 ± 0.75 for the second.

First: CCGCTAGCCT
Second: GAAACGCGTA
The switch fluorescence ratio of the first is higher: 2.94 ± 0.53 for the first, 0.994 ± 0.021 for the second.

CCGGGGTTGA and AAATAACCGA are within error of each other in switch fluorescence ratio: 0.993 ± 0.074 for the first, 1.08 ± 0.02 for the second.

First: AGTAAATTCT
Second: TGCGGTATGG
The switch fluorescence ratio of the first is lower: 0.9887 ± 0.0015 for the first, 1.03 ± 0.017 for the second.

TAGGTTGTCA and GGGCCAGGGT are within error of each other in switch fluorescence ratio: 1.04 ± 0.024 for the first, 1.02 ± 0.0054 for the second.

CATGCAGATA and GTGTTTACTT are the same in switch fluorescence ratio: 1.006 ± 0.0094 for the first, 1.01 ± 0.021 for the second.

GGTAGCGTCT and GCGATGGTGT are within error of each other in switch fluorescence ratio: 1.06 ± 0.09 for the first, 1.02 ± 0.008 for the second.

TCGTACACGT and AAATCATTGT are within error of each other in switch fluorescence ratio: 0.978 ± 0.015 for the first, 1 ± 0.014 for the second.

ATAGAATGGG and AAAGAAGATG are within error of each other in switch fluorescence ratio: 0.9928 ± 0.0072 for the first, 0.953 ± 0.045 for the second.

GGTCCTGGGA and CAAGCCAGTT are within error of each other in switch fluorescence ratio: 1.02 ± 0.059 for the first, 0.9985 ± 0.0043 for the second.

TCTGCTTATT and AGGTTTTTGC are within error of each other in switch fluorescence ratio: 0.979 ± 0.048 for the first, 1.02 ± 0.02 for the second.

Going from GATTGCTTTC to TACCAACTTA, the switch fluorescence ratio rises from 1.02 ± 0.023 to 1.1 ± 0.033.

TTCACGGTTC and CGTGGAGAGC are within error of each other in switch fluorescence ratio: 1.02 ± 0.027 for the first, 1.06 ± 0.043 for the second.

TATTTTCACT and GGCTCAACGA are within error of each other in switch fluorescence ratio: 1.05 ± 0.11 for the first, 1.01 ± 0.045 for the second.

AAACAGCGTG and GTTGGTAATT are within error of each other in switch fluorescence ratio: 1.01 ± 0.017 for the first, 0.987 ± 0.015 for the second.

GTTGCGAGGG and AGCAGAGTTG are within error of each other in switch fluorescence ratio: 1.02 ± 0.016 for the first, 1 ± 0.018 for the second.

Going from CGCGGGAACA to GGGGTCATTG, the switch fluorescence ratio falls from 1.022 ± 0.005 to 0.988 ± 0.023.

ATAGGTAGCG and GAGGGGGGAA are the same in switch fluorescence ratio: 1.01 ± 0.023 for the first, 1.01 ± 0.03 for the second.

GAACCCCCTC and CGATGTTCAC are within error of each other in switch fluorescence ratio: 1.21 ± 0.18 for the first, 1.05 ± 0.011 for the second.

TTTATTAGGC and GCGGTTCGAG are within error of each other in switch fluorescence ratio: 0.996 ± 0.022 for the first, 0.9872 ± 0.0033 for the second.

TGATTTATTG and CTCTGGGGGA are within error of each other in switch fluorescence ratio: 0.985 ± 0.03 for the first, 1.05 ± 0.068 for the second.

TAAAAGGGGC and TGTGGAAGGG are within error of each other in switch fluorescence ratio: 0.985 ± 0.098 for the first, 0.981 ± 0.019 for the second.

GGCGGGGGGA and CGGGCTTAAG are within error of each other in switch fluorescence ratio: 1.01 ± 0.032 for the first, 1.02 ± 0.037 for the second.

First: ACTGCAGAGG
Second: ACGGGGAAAG
The switch fluorescence ratio of the first is higher: 1.08 ± 0.034 for the first, 0.9916 ± 0.0019 for the second.

GCTGGGGTAA and AAGGTCAGCT are within error of each other in switch fluorescence ratio: 1.02 ± 0.021 for the first, 0.991 ± 0.016 for the second.

CACGTTAGTT and GGTATTCGGT are within error of each other in switch fluorescence ratio: 1.06 ± 0.06 for the first, 0.971 ± 0.04 for the second.

GGTTTTTTGA and ATGGTGGGTG are within error of each other in switch fluorescence ratio: 1.01 ± 0.038 for the first, 1.03 ± 0.046 for the second.

AATAAGCGCA and CGCGGGTTGG are within error of each other in switch fluorescence ratio: 0.993 ± 0.037 for the first, 1.02 ± 0.017 for the second.

Going from TGAGAGTTCA to CAGTTCGGAA, the switch fluorescence ratio rises from 1.006 ± 0.0032 to 1.07 ± 0.027.

ATATTTCTGG and CACTGCTTTA are within error of each other in switch fluorescence ratio: 0.986 ± 0.018 for the first, 1.02 ± 0.037 for the second.

GAGGTTTTGT and GGAAAAGGGT are within error of each other in switch fluorescence ratio: 1 ± 0.023 for the first, 0.998 ± 0.04 for the second.

Compared with TTGAAGTCTA, TTCTAGCCTT is higher in switch fluorescence ratio: 0.992 ± 0.027 for the first, 1.043 ± 0.00045 for the second.

CGATTTGTGT and AGACCTTTTA are within error of each other in switch fluorescence ratio: 0.984 ± 0.011 for the first, 1 ± 0.063 for the second.

Compared with ATGTACTCGC, CGGCGAAGAT is lower in switch fluorescence ratio: 1.08 ± 0.031 for the first, 1.01 ± 0.025 for the second.

GTGGCTGGG and CGATATTGGT are within error of each other in switch fluorescence ratio: 0.988 ± 0.038 for the first, 1 ± 0.017 for the second.

CAGGGGGGAA and CTATTTTTTT are within error of each other in switch fluorescence ratio: 1.024 ± 0.0064 for the first, 1.01 ± 0.02 for the second.

CATTCATGAT and GTTTTATTGA are the same in switch fluorescence ratio: 0.9858 ± 0.0086 for the first, 0.986 ± 0.015 for the second.

CGTTGGTTCC and CGAAAGGCTA are within error of each other in switch fluorescence ratio: 1.034 ± 0.0058 for the first, 1.15 ± 0.18 for the second.

First: AACGTTAGGT
Second: AAAAGCTTGC
The switch fluorescence ratio of the first is lower: 0.9704 ± 0.0022 for the first, 1.13 ± 0.11 for the second.

Sequence AACGTGGCGT has a switch fluorescence ratio of 1.023 ± 0.0066.
